Patent US20220073617A1 (Five Prime, published 2022)
Positions count from the first letter of the chain named. Names may count otherwise. “And” between values parts separate entries of the source, which are not always exact repeats. Equal entries are not always repeated.

B1: P1-061528 (41F11 NGS mut VK_A64G/R91A) (antibody, V domains shown)
VH: QVQLVESGGGLVKPGGSLRLSCAASGFTFSDYYMSWIRQAPGKGLEWVSYISNSGSPIYYADSVKGRFTISRDNAKNSLYLQMNSLRAEDTAVYYCARDLPGWYFDLWGRGTLVTVSS
VL: EIVLTQSPATLSLSPGERATLSCRASQSVSSYLAWYQQKPGQAPRLLIYDASNRATGIPARFSGSGSGTDFTLTISSLEPEDFAVYYCQQANNWPRTFGQGTKVEIK
notes: also called P1-061528-2
B2: P1-065326 (41F11_VH_D31E/Y50W/S55E/L96E/Y100E VK_A64G) (antibody, V domains shown)
VH: B1 VH with D31E, Y50W, S56E, L100E, Y104E
VL: B1 VL with A91R
notes: Kabat positions; also called P1-065326-1
B3: P1-064510 (41F11_Vk_A25E/V29D/A64G/R91T) (antibody, V domains shown)
VH: B1 VH
VL: B1 VL with A25E, V29D, A91T
notes: also called P1-064510-1
B4: P1-063001 (41F11_LC_Mutant: V29D/A64G/R91T) (antibody, V domains shown)
VH: B1 VH
VL: B1 VL with V29D, A91T
notes: also called P1-063001-5; P1-063001-6
B5: P1-064391 (41F11_HC_Mutant: D31E/Y50W/S55E/Y100E 41F11_LC_Mutant: V29D/A64G/R91T) (antibody, V domains shown)
VH: B1 VH with D31E, Y50W, S56E, Y104E
VL: B1 VL with V29D, A91T
notes: Kabat positions; also called P1-064391-1
B6: P1-065064 (41F11_LC_Mutant: V29D/A64G/R91T) (antibody, V domains shown)
VH: B1 VH
VL: B1 VL with V29D, A91T
notes: Same printed description as P1-063001 under another ID; also called P1-065064-1
B7: P1-063125 (41F11_HC_Mutant: T28P/Y50W/S55E/Y100E) (antibody, V domains shown)
VH: B1 VH with T28P, Y50W, S56E, Y104E
VL: B1 VL with G64A, A91R
notes: Kabat positions; also called P1-063125-5
B8: P1-064490 (41F11_VH_F27EY50EL96E) (antibody, V domains shown)
VH: B1 VH with F27E, Y50E, L100E
VL: B1 VL with G64A, A91R
notes: Kabat positions; also called P1-064490-1; P1-064490-2
B9: P1-063153 (41F11_HC_mutant: D31E/Y50W/S55E/Y100E) (antibody, V domains shown)
VH: B1 VH with D31E, Y50W, S56E, Y104E
VL: B1 VL with G64A, A91R
notes: Kabat positions; also called P1-063153-5
B10: P1-064392 (41F11_HC_Mutant: D31E/Y50W/S55E/Y100E 41F11_LC_Mutant: V29D/A64G/Q89E/R91T) (antibody, V domains shown)
VH: B1 VH with D31E, Y50W, S56E, Y104E
VL: B1 VL with V29D, Q89E, A91T
notes: Kabat positions; also called P1-064392-1

What follows are binders tested against T1, monovalent hVISTA-ECD (human VISTA extracellular domain with His tail) (human, UniProt Q9H7M9 33-193) (assay: SPR).
T1 construct: analyte flowed over captured antibody; also called huVISTA-His
Procedure: (§1) Binding of several preparations of each of the '029 progeny clones and of the parent '029 antibodies, formatted as IgG1.3 antibodies, to human VISTA at pH 6.0 and 7.4 was measured by Surface plasmon resonance (SPR). SPR analysis was performed to measure koff and KD binding affinity measurements for VISTA Abs at acidic and neutral pHs using a Biacore® T100 instrument (GE Healthcare). Protein A (ThermoFisher Scientific catalog #21181) was diluted to 20 ug/ml in 10 mM sodium acetate pH 4.5 and immobilized onto flow cells of a CM5 biosensor following the manufacturer's amine coupling protocol (GE Healthcare), targeting 2,000 RU immobilization density of Protein A per flow cell. SPR experiments were conducted at 37° C. using PBST (137 mM sodium chloride, 2.7 mM potassium chloride, 10 mM phosphate buffer, 0.05% Tween® 20) running buffer at pH 7.4 and 6.0. Antibodies were diluted to 25 nM in PBST pH 7.4, and were captured across active biosensor flow cells at 5 ul/min for 60 seconds. […] Two 15 second injections of 10 mM glycine pH 1.5 were used to regenerate the Protein A capture surface between assay cycles. Rate constants ka (kₒₙ) and kd (koff) were derived from reference flow cell and 0 nM blank-subtracted sensorgrams, and were fit to a 1:1 binding model in Biacore® T200 Evaluation Software v.2.0. The affinity constant, KD was calculated as the ratio of rate constants koff/kₒₙ for each VISTA antibody. […]

T1 sequence (Q9H7M9 other isoform, or with tags, fused parts or gaps limits assumed): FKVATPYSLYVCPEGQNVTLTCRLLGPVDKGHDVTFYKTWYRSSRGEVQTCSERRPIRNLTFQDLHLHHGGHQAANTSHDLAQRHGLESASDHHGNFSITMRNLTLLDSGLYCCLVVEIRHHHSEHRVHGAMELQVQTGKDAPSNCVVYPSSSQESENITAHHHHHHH

Binder | KD ratio (pH 7.4/pH 6.0)
B1 | 7.88
B2 | 5.73
B3 | 33.8

Target: T1, monovalent hVISTA-ECD (human VISTA …)
Experiment: SPR
Remark: another data set of the same source
Procedure: (§2) Binding of several preparations of each of the '029 progeny clones and of the parent '029 antibodies, formatted as IgG1.3 antibodies, to human VISTA at pH 6.0 and 7.4 was measured by Surface plasmon resonance (SPR). SPR analysis was performed to measure koff and KD binding affinity measurements for VISTA Abs at acidic and neutral pHs using a Biacore® T100 instrument (GE Healthcare). Protein A (ThermoFisher Scientific catalog #21181) was diluted to 20 ug/ml in 10 mM sodium acetate pH 4.5 and immobilized onto flow cells of a CM5 biosensor following the manufacturer's amine coupling protocol (GE Healthcare), targeting 2,000 RU immobilization density of Protein A per flow cell. SPR experiments were conducted at 37° C. using PBST (137 mM sodium chloride, 2.7 mM potassium chloride, 10 mM phosphate buffer, 0.05% Tween® 20) running buffer at pH 7.4 and 6.0. Antibodies were diluted to 25 nM in PBST pH 7.4, and were captured across active biosensor flow cells at 5 ul/min for 60 seconds. […] Two 15 second injections of 10 mM glycine pH 1.5 were used to regenerate the Protein A capture surface between assay cycles. Rate constants ka (kₒₙ) and kd (koff) were derived from reference flow cell and 0 nM blank-subtracted sensorgrams, and were fit to a 1:1 binding model in Biacore® T200 Evaluation Software v.2.0. The affinity constant, KD was calculated as the ratio of rate constants koff/kₒₙ for each VISTA antibody.

Binder | pH 6.0/7.4 KD | pH 6.0/7.4 kd
B1 | 3.3 | 12
B2 | 0.2 | 1.1
B4 | 2.7 | 10.2
B3 | 0.6 | 4.8
B5 | 0.2 | 2.1
B6 | 3 | 11.2
B7 | 0.9 | 3.9
B8 | 0.3 | 4
B9 | 0.8 | 3.9
B10 | 0.1 | 1.2

The binders below were run against T1, monovalent hVISTA-ECD (human VISTA …) (assay: SPR, pH 6.0).
Procedure: as §1

Binder | Kd | koff | kon
B1 | 3.86 nM | 0.00237 s⁻¹ | 616000 M⁻¹ s⁻¹
B2 | 0.172 nM | 0.000603 s⁻¹ | 3.52e+06 M⁻¹ s⁻¹
B4 | 0.644 nM and 0.751 nM | 0.00168 s⁻¹ and 0.00171 s⁻¹ | 2.61e+06 M⁻¹ s⁻¹ and 2.28e+06 M⁻¹ s⁻¹
B3 | 2.51 nM | 0.00312 s⁻¹ | 1.24e+06 M⁻¹ s⁻¹
B7 | 0.356 nM and 0.435 nM | 0.00124 s⁻¹ and 0.0012 s⁻¹ | 3.47e+06 M⁻¹ s⁻¹ and 2.77e+06 M⁻¹ s⁻¹
B8 | 34.8 nM and 31.4 nM | 0.00726 s⁻¹ and 0.00818 s⁻¹ | 209000 M⁻¹ s⁻¹ and 260000 M⁻¹ s⁻¹
B9 | 0.139 nM and 0.223 nM | 0.00114 s⁻¹ and 0.000909 s⁻¹ | 8.19e+06 M⁻¹ s⁻¹ and 4.07e+06 M⁻¹ s⁻¹

What follows are binders tested against T1, monovalent hVISTA-ECD (human VISTA …) (assay: SPR, pH 7.4).
Procedure: as §1

Binder | Kd | koff | kon
B1 | 30.4 nM | 0.00019 s⁻¹ | 6260 M⁻¹ s⁻¹
B2 | 0.986 nM | 0.000285 s⁻¹ | 289000 M⁻¹ s⁻¹
B4 | 0.665 nM and 0.737 nM | 0.00013 s⁻¹ and 0.00012 s⁻¹ | 195000 M⁻¹ s⁻¹ and 163000 M⁻¹ s⁻¹
B3 | 84.8 nM | 0.000527 s⁻¹ | 6220 M⁻¹ s⁻¹
B7 | 0.365 nM and 0.32 nM | 0.000178 s⁻¹ and 0.000141 s⁻¹ | 488000 M⁻¹ s⁻¹ and 441000 M⁻¹ s⁻¹
B8 | – | 0.00266 s⁻¹ and 0.0023 s⁻¹ | –
B9 | 0.101 nM and 0.0675 nM | 6.9e-05 s⁻¹ and 4.05e-05 s⁻¹ | 685000 M⁻¹ s⁻¹ and 600000 M⁻¹ s⁻¹

Target: T1, monovalent hVISTA-ECD (human VISTA …)
Experiment: SPR, pH 6.0
Remark: another data set of the same source
Procedure: as §2

Binder | Kd | kd improvement vs parent | koff | kon
B1 | 4.7 nM | 51.4 fold | 0.0021 s⁻¹ | 450000 M⁻¹ s⁻¹
B2 | 0.12 nM | 294 fold | 0.00036 s⁻¹ | 2.9e+06 M⁻¹ s⁻¹
B4 | 1 nM | 81.7 fold | 0.0013 s⁻¹ | 1.3e+06 M⁻¹ s⁻¹
B3 | 2.6 nM | 35 fold | 0.0031 s⁻¹ | 1.2e+06 M⁻¹ s⁻¹
B5 | 6.4 nM | 3.3 fold | 0.033 s⁻¹ | 5.1e+06 M⁻¹ s⁻¹
B6 | 1.1 nM | 80.5 fold | 0.0013 s⁻¹ | 1.3e+06 M⁻¹ s⁻¹
B7 | 0.25 nM | 136 fold | 0.00079 s⁻¹ | 3.1e+06 M⁻¹ s⁻¹
B8 | 22 nM | 8.2 fold | 0.013 s⁻¹ | 600000 M⁻¹ s⁻¹
B9 | 0.13 nM | 233 fold | 0.00046 s⁻¹ | 3.6e+06 M⁻¹ s⁻¹
B10 | 1.8 nM | 12.4 fold | 0.0086 s⁻¹ | 4.8e+06 M⁻¹ s⁻¹

Target: T1, monovalent hVISTA-ECD (human VISTA …)
Experiment: SPR, pH 7.4
Remark: another data set of the same source
Procedure: as §2

Binder | Kd | kd improvement vs parent | koff | kon
B1 | 1.4 nM | 5.1 fold | 0.00017 s⁻¹ | 120000 M⁻¹ s⁻¹
B2 | 0.76 nM | 2.7 fold | 0.00033 s⁻¹ | 440000 M⁻¹ s⁻¹
B4 | 0.38 nM | 6.8 fold | 0.00013 s⁻¹ | 340000 M⁻¹ s⁻¹
B3 | 4.1 nM | 1.4 fold | 0.00064 s⁻¹ | 150000 M⁻¹ s⁻¹
B5 | 37 nM | 0.1 fold | 0.016 s⁻¹ | 430000 M⁻¹ s⁻¹
B6 | 0.36 nM | 7.4 fold | 0.00012 s⁻¹ | 330000 M⁻¹ s⁻¹
B7 | 0.27 nM | 4.3 fold | 0.0002 s⁻¹ | 770000 M⁻¹ s⁻¹
B8 | 75 nM | 0.3 fold | 0.0032 s⁻¹ | 43000 M⁻¹ s⁻¹
B9 | 0.15 nM | 7.4 fold | 0.00012 s⁻¹ | 780000 M⁻¹ s⁻¹
B10 | 15 nM | 0.1 fold | 0.007 s⁻¹ | 470000 M⁻¹ s⁻¹

Target: T1, monovalent hVISTA-ECD (human VISTA …)
Experiment: SPR, pH 6.0
Remark: another data set of the same source
Procedure: as §2
(§3) This initial campaign led to pH-independent VISTA.4 variants with near equivalent koff at pH 6 and pH 7. In order to obtain an antibody that binds to hVISTA with high affinity at pH 6.0 and low affinity at pH 7.0, a new library based on consensus sequence of pH-independent VISTA.4 variants was designed and constructed, with amino acid residues in the loops substituted for charge amino acid residues (see Example 9), and screened via yeast surface display (see Example 9). The library was analyzed as previously described (see Example 9) and selected variants were reformatted as IgG1.3 for further analysis (Tables 26 and 27). SPR analysis was conducted on these variants using the conditions previously described in Example 9.

Binder | Kd | koff | kon
B2 | 0.21 nM | 0.00051 s⁻¹ | 2.4e+06 M⁻¹ s⁻¹
B3 | 4.8 nM | 0.0036 s⁻¹ | 750000 M⁻¹ s⁻¹
B5 | 10 nM | 0.027 s⁻¹ | 2.7e+06 M⁻¹ s⁻¹
B10 | 1.6 nM | 0.012 s⁻¹ | 7.7e+06 M⁻¹ s⁻¹

Target: T1, monovalent hVISTA-ECD (human VISTA …)
Experiment: SPR, pH 7.4
Remark: another data set of the same source
Procedure: as §2, §3

Binder | Kd | koff | kon
B2 | 0.72 nM | 0.00032 s⁻¹ | 450000 M⁻¹ s⁻¹
B3 | 3.4 nM | 0.00039 s⁻¹ | 110000 M⁻¹ s⁻¹
B5 | 31 nM | 0.019 s⁻¹ | 630000 M⁻¹ s⁻¹
B10 | 11 nM | 0.0078 s⁻¹ | 770000 M⁻¹ s⁻¹
